Reference: IntAct's records for PubMed 31515488

B1: Calcium-binding and coiled-coil domain-containing protein 2 (Homo sapiens), Q13137 (parent)
chain: MEETIKDPPTSAVLLDHCHFSQVIFNSVEKFYIPGGDVTCHYTFTQHFIPRRKDWIGIFRVGWKTTREYYTFMWVTLPIDLNNKSAKQQEVQFKAYYLPKDDEYYQFCYVDEDGVVRGASIPFQFRPENEEDILVVTTQGEVEEIEQHNKELCKENQELKDSCISLQKQNSDMQAELQKKQEELETLQSINKKLELKVKEQKDYWETELLQLKEQNQKMSSENEKMGIRVDQLQAQLSTQEKEMEKLVQGDQDKTEQLEQLKKENDHLFLSLTEQRKDQKKLEQTVEQMKQNETTAMKKQQELMDENFDLSKRLSENEIICNALQRQKERLEGENDLLKRENSRLLSYMGLDFNSLPYQVPTSDEGGARQNPGLAYGNPYSGIQESSSPSPLSIKKCPICKADDICDHTLEQQQMQPLCFNCPICDKIFPATEKQIFEDHVFCHSL
partner: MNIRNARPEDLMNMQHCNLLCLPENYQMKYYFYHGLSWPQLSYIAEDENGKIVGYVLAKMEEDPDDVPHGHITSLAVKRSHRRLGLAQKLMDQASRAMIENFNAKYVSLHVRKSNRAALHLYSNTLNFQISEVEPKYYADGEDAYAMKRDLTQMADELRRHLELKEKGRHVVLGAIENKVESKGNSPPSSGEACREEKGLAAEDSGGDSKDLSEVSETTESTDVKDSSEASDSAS
B2: Septin-2 (Homo sapiens), Q15019 (parent)
chain: MSKQQPTQFINPETPGYVGFANLPNQVHRKSVKKGFEFTLMVVGESGLGKSTLINSLFLTDLYPERVIPGAAEKIERTVQIEASTVEIEERGVKLRLTVVDTPGYGDAINCRDCFKTIISYIDEQFERYLHDESGLNRRHIIDNRVHCCFYFISPFGHGLKPLDVAFMKAIHNKVNIVPVIAKADTLTLKERERLKKRILDEIEEHNIKIYHLPDAESDEDEDFKEQTRLLKASIPFSVVGSNQLIEAKGKKVRGRLYPWGVVEVENPEHNDFLKLRTMLITHMQDLQEVTQDLHYENFRSERLKRGGRKVENEDMNKDQILLEKEAELRRMQEMIARMQAQMQMQMQGGDGDGGALGHHV
partner: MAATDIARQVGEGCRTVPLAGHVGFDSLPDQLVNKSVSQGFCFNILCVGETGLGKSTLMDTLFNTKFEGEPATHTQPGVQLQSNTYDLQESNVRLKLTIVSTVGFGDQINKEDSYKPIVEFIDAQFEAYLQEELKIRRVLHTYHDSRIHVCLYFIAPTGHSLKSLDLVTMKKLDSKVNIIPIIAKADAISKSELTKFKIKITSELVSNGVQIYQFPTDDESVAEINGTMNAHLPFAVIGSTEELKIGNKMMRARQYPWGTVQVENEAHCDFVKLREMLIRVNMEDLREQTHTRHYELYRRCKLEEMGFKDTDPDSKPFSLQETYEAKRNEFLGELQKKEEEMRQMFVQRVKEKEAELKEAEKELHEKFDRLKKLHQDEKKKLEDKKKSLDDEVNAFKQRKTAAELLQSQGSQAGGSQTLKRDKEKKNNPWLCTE
B3: Ubiquitin thioesterase OTUB2 (Homo sapiens), Q96DC9 (parent)
chain: MSETSFNLISEKCDILSILRDHPENRIYRRKIEELSKRFTAIRKTKGDGNCFYRALGYSYLESLLGKSREIFKFKERVLQTPNDLLAAGFEEHKFRNFFNAFYSVVELVEKDGSVSSLLKVFNDQSASDHIVQFLRLLTSAFIRNRADFFRHFIDEEMDIKDFCTHEVEPMATECDHIQITALSQALSIALQVEYVDEMDTALNHHVFPEAATPSVYLLYKTSHYNILYAADKH
partner: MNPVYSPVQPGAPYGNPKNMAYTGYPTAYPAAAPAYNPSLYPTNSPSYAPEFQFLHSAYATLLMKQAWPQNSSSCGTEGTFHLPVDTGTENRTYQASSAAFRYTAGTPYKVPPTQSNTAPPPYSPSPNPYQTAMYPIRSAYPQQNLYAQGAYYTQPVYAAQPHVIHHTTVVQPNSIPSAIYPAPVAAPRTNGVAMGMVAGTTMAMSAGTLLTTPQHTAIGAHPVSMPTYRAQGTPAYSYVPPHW
B4: Ligand of Numb protein X 2 (Homo sapiens), Q8N448 (parent)
chain: MGTTSDEMVSVEQTSSSSLNPLCFECGQQHWTRENHLYNYQNEVDDDLVCHICLQPLLQPLDTPCGHTFCYKCLRNFLQEKDFCPLDRKRLHFKLCKKSSILVHKLLDKLLVLCPFSSVCKDVMQRCDLEAHLKNRCPGASHRRVALERRKTSRTQAEIENENGPTLLDPAGTLSPEADCLGTGAVPVERHLTSASLSTWSEEPGLDNPAFEESAGADTTQQPLSLPEGEITTIEIHRSNPYIQLGISIVGGNETPLINIVIQEVYRDGVIARDGRLLAGDQILQVNNYNISNVSHNYARAVLSQPCNTLHLTVLRERRFGNRAHNHSDSNSPREEIFQVALHKRDSGEQLGIKLVRRTDEPGVFILDLLEGGLAAQDGRLSSNDRVLAINGHDLKYGTPELAAQIIQASGERVNLTIARPGKPQPGNTIREAGNHSSSSQHHTPPPYYSRPSSHKDLTQCVTCQEKHITVKKEPHESLGMTVAGGRGSKSGELPIFVTSVPPHGCLARDGRIKRGDVLLNINGIDLTNLSHSEAVAMLKASAASPAVALKALEVQIVEEATQNAEEQPSTFSENEYDASWSPSWVMWLGLPSTLHSCHDIVLRRSYLGSWGFSIVGGYEENHTNQPFFIKTIVLGTPAYYDGRLKCGDMIVAVNGLSTVGMSHSALVPMLKEQRNKVTLTVICWPGSLV
partner: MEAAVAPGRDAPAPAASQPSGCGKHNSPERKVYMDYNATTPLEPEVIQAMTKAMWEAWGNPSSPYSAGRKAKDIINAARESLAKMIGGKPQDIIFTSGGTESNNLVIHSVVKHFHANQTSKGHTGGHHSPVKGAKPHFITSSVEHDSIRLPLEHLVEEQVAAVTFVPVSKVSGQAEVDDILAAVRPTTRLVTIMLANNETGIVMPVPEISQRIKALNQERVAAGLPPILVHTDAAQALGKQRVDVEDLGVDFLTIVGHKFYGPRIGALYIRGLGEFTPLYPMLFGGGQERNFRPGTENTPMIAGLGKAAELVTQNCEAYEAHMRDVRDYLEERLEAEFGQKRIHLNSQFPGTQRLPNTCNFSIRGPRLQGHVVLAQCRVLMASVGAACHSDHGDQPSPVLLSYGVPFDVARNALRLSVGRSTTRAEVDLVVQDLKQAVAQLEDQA

Variants of: B1
Conditions: with naa10_human NAA10, P41227

Variant | effect of a mutation on the interaction
P389A | with no effect
T273A | with no effect

Variants of: B2
Conditions: with sept6_human SEPTIN6, Q14141

Variant | effect of a mutation on the interaction
H270D | with no effect

Variants of: B3
Conditions: with FAM168A

Variant | effect of a mutation on the interaction
R146P | disrupting interaction strength
V78I | with no effect

Variants of: B4
Conditions: with scly_human SCLY

Variant | effect of a mutation on the interaction
S198P | with no effect
